These results are taken from doi:10.1101/2021.12.16.472929 (bioRxiv, 2021).

Series [1] concerns the molecule itself. The series is described as follows: SEC-SAXS. For orientation: SEC sorts molecules by how far they enter the pores of the column.
Series [2] concerns the molecule itself. Put plainly: SEC-SAXS. This is another data set of the same source.
The series “SEC” concerns the molecule itself. Put plainly: SEC.

Like-named read-outs stand apart in the source and are kept apart here.

B1: FLrArc-7A, full-length rat Arc with a poly-Ala mutation of residues 113-119 (natural protein)
chain: MELDHMTTGGLHAYPAPRGGPAAKPNVILQIGKCRAEMLEHVRRTHRHLLTEVSKQVERELKGLHRSVGKLENNLDGYVPTGDSQRWKKSIKACLCRCQETIANLERWVKREAAAAAAAFYRLERWADRLESMGGKYPVGSEPARHTVSVGVGGPEPYCQEADGYDYTVSPYAITPPPAAGELPEQESVGAQQYQSWVPGEDGQPSPGVDTQIFEDPREFLSHLEEYLRQVGGSEEYWLSQIQNHMNGPAKKWWEFKQGSVKNWVEFKKEFLQYSEGTLSREAIQRELDLPQKQGEPLDQFLWRKRDLYQTLYVDAEEEEIIQYVVGTLQPKFKRFLRHPLPKTLEQLIQRGMEVQDGLEQAAEPSVTPLPTEDETEALTPALTSESVASDRTQPE
Consider B1, for which, in the series “SEC-SAXS [1]”, the stoichiometry N (as a rule, a count of units in the complex or per binding partner) came out at 2.

B2: MBP-2rNT, N-terminal domain of rat Arc (residues 24-137) with the poly-Ala mutation, His6-MBP fusion (domain or fragment)
chain: KPNVILQIGKCRAEMLEHVRRTHRHLLTEVSKQVERELKGLHRSVGKLENNLDGYVPTGDSQRWKKSIKACLCRCQETIANLERWVKREAAAAAAAFYRLERWADRLESMGGKY
As for B2, the “stoichiometry N” value in “SEC-SAXS [2]” amounted to 2.

B3: FLhArc, full-length human Arc (capsid / high-molecular-weight forms) (natural protein)
chain: MELDHRTSGGLHAYPGPRGGQVAKPNVILQIGKCRAEMLEHVRRTHRHLLAEVSKQVERELKGLHRSVGKLESNLDGYVPTSDSQRWKKSIKACLCRCQETIANLERWVKREMHVWREVFYRLERWADRLESTGGKYPVGSESARHTVSVGVGGPESYCHEADGYDYTVSPYAITPPPAAGELPGQEPAEAQQYQPWVPGEDGQPSPGVDTQIFEDPREFLSHLEEYLRQVGGSEEYWLSQIQNHMNGPAKKWWEFKQGSVKNWVEFKKEFLQYSEGTLSREAIQRELDLPQKQGEPLDQFLWRKRDLYQTLYVDADEEEIIQYVVGTLQPKLKRFLRHPLPKTLEQLIQRGMEVQDDLEQAAEPAGPHLPVEDEAETLTPAPNSESVASDRTQPE
For the protein B3, the binding result in “SEC” is “binds”.
